# From doi:10.1101/054106
# Target: potato ADP-glucose pyrophosphorylase (AGPase) small subunit, wild type (potato (S. tuberosum)) (UniProt P23509)
# Test: native gel or EMSA
# potato ADP-glucose pyrophosphorylase (AGPase) small subunit, wild type (potato (S. tuberosum)), sequence (P23509 73-521): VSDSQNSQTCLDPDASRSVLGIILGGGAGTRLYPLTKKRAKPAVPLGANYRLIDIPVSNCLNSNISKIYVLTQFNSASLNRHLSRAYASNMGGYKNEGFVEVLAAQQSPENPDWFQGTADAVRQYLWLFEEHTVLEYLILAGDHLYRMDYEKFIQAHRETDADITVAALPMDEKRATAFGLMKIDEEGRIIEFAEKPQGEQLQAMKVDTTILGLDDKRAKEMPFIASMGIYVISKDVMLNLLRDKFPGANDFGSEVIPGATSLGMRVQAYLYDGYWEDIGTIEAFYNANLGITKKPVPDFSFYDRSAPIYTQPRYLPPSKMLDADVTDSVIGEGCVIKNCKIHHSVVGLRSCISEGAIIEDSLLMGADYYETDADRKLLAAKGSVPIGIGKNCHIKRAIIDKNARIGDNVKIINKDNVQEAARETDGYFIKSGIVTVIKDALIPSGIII
Substance,percent of total band intensity in the dimer band [%],percent in the form of heterotetramers [%]
"potato ADP-glucose pyrophosphorylase (AGPase) large subunit, E370R mutant (enzyme)",40,
"potato ADP-glucose pyrophosphorylase (AGPase) large subunit, E370G mutant (enzyme)",,90
